Measured values reported in patent US20240207421A1, “NERVE TARGETING PEPTIDES AND METHODS OF USE” (ALUME BIOSCIENCES, INC., priority 2020, published 2024).

Biological target: Human Myelin Basic Protein (Homo sapiens, UniProt P02686)
Test: Phage display library screening (Example 2, Python script analysis), binding to Human Myelin Basic Protein
Design: Enzo 200-606-M001 from human; purchased Enzo 200-606-M001; host or cells: human brain (tissue-derived)
Settings: R3 Myelin Basic Protein; combined unique sequence count, Python/R script analysis
Procedure: Phage display library screens were used to identify peptides that bind to target proteins (including specific laminin trimers) that are expressed in human nerves, as described in Table 3. These screens were also carried out to identify peptides that could bind selectively to nerves versus muscle. Such peptides could therefore be useful for systemic in-vivo labeling of nerves during fluorescence assisted surgery. Specifically, m 13 phage libraries expressing 7 or 12 random amino acid peptides, or a cyclic peptide CX7C, on the N-terminus of the minor coat protein pIII (New England Biolabs; NEB) were processed through multiple rounds of selection for binding to target proteins expressed in nerves, or to excised human nerves, nerve extracts, or muscle, as described further below.
For screening against the specified target proteins in Table 1, including LN211, LN411, LN421, and LN521, the phage library was processed by up to 4 binding and wash cycles. For selection, phage libraries were incubated for up to 24 hours at 4° C. in 96 well plates that had been coated with one of the target proteins. Plates were then washed with PBS and phage were eluted using 0.2M glycine pH 2.0. Phage supernatants where then neutralized with Tris pH 9.0 prior to plating on TGI bacteria and LB agar plates. Colonies were counted to determine titer followed by DNA preparation of pools of phage and NextGen sequencing. After rounds of selection, phage were pooled and amplified for iterative selection. Phage that were bound at each round were sequenced. NextGen sequencing of pools after 2, 3 and 4 rounds of selection was used to isolate candidate sequences that were analyzed further to identify those that specifically bound each unique target protein.
Python Script Analysis: For all NEB sequence datasets, a python script was used to translate, trim, and filter the peptide sequences. The script translated the nucleotide sequences, translating amber codons as glutamine in peptide sequences, and then trimmed the end sequences that come from the vector. Secondly, the script combined the unique counts of trimmed peptides with identical sequences. […] Another python script was used to group peptides from different assays according to protein target (Myelin Protein Zero, Myelin Proteolipid Protein, Myelin Basic Protein, and Nidogen-2) and also combine the unique sequence counts for each peptide. An R script was written to merge the peptide sequences from different data files and determine peptides specific for each protein target but absent from different protein binding datasets. Peptide sequences were ranked by unique sequence count.

Sequence of Human Myelin Basic Protein (P02686 134-304): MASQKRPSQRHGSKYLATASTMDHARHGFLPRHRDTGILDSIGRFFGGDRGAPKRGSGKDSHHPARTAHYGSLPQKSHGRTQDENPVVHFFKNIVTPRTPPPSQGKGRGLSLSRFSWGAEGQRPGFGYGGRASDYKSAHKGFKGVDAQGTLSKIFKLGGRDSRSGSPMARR

| Substance | Count |
| --- | --- |
| WSPRWPS (R3 Myelin Basic Protein-binding peptide) | 7 |
| AISWKGF (R3 Myelin Basic Protein-binding peptide) | 6 |
| VGTFWTR (R3 Myelin Basic Protein-binding peptide) | 6 |
| RTTDWWT (R3 Myelin Basic Protein-binding peptide) | 6 |
| HSSATMS (R3 Myelin Basic Protein-binding peptide) | 6 |
| CPRMNNPLC (R3 Myelin Basic Protein-binding peptide) | 7 |
| TGNLRLY (R3 Myelin Basic Protein-binding peptide) | 9 |
| FKLPWAS (R3 Myelin Basic Protein-binding peptide) | 7 |
| ESKSPRE (R3 Myelin Basic Protein-binding peptide) | 6 |
| YATATPS (R3 Myelin Basic Protein-binding peptide) | 8 |
| ALYNQMT (R3 Myelin Basic Protein-binding peptide) | 6 |
| TPQVMLK (R3 Myelin Basic Protein-binding peptide) | 8 |
| HPTGTPT (R3 Myelin Basic Protein-binding peptide) | 7 |
| FSARTNT (R3 Myelin Basic Protein-binding peptide) | 9 |
| VPTLRIP (R3 Myelin Basic Protein-binding peptide) | 8 |
| NGPNSLQ (R3 Myelin Basic Protein-binding peptide) | 6 |
| TGSVSKQ (R3 Myelin Basic Protein-binding peptide) | 6 |
| GHSHYILGKPTA (R3 Myelin Basic Protein-binding peptide) | 7 |
| FLNQAPT (R3 Myelin Basic Protein-binding peptide) | 7 |
| ALRDTRV (R3 Myelin Basic Protein-binding peptide) | 6 |
| MPLLELP (R3 Myelin Basic Protein-binding peptide) | 7 |
| GEPALVT (R3 Myelin Basic Protein-binding peptide) | 6 |

| Substance | Count |
| --- | --- |
| HPDTLPQ (R3 Myelin Basic Protein-binding peptide) | 7 |
| VVDMSTY (R3 Myelin Basic Protein-binding peptide) | 7 |
| KIITTKS (R3 Myelin Basic Protein-binding peptide) | 6 |
| MDLSLKP (R3 Myelin Basic Protein-binding peptide) | 10 |
| ETHYKIA (R3 Myelin Basic Protein-binding peptide) | 6 |
| SVEYGQL (R3 Myelin Basic Protein-binding peptide) | 9 |
| YVNRVKQ (R3 Myelin Basic Protein-binding peptide) | 6 |
| KMSLAPP (R3 Myelin Basic Protein-binding peptide) | 6 |
| LELHQNV (R3 Myelin Basic Protein-binding peptide) | 6 |
| TPLYLSS (R3 Myelin Basic Protein-binding peptide) | 7 |
| HFTFFPI (R3 Myelin Basic Protein-binding peptide) | 6 |
| ASNTSKG (R3 Myelin Basic Protein-binding peptide) | 7 |
| AAGQRSF (R3 Myelin Basic Protein-binding peptide) | 7 |
| QGAYVRP (R3 Myelin Basic Protein-binding peptide) | 6 |
| RGHPSQL (R3 Myelin Basic Protein-binding peptide) | 6 |
| WVPDRSL (R3 Myelin Basic Protein-binding peptide) | 6 |
| SYTLSRS (R3 Myelin Basic Protein-binding peptide) | 7 |
| TRIPILL (R3 Myelin Basic Protein-binding peptide) | 6 |
| NSSPHQI (R3 Myelin Basic Protein-binding peptide) | 7 |
| YPYVPIY (R3 Myelin Basic Protein-binding peptide) | 6 |
| MPSLKHQ (R3 Myelin Basic Protein-binding peptide) | 8 |
| SAVLMPP (R3 Myelin Basic Protein-binding peptide) | 6 |

| Substance | Count |
| --- | --- |
| LTKSLNH (R3 Myelin Basic Protein-binding peptide) | 7 |
| FQLSYET (R3 Myelin Basic Protein-binding peptide) | 6 |
| YTASPRW (R3 Myelin Basic Protein-binding peptide) | 6 |
| MQRLGAD (R3 Myelin Basic Protein-binding peptide) | 6 |
| TQMTMDS (R3 Myelin Basic Protein-binding peptide) | 10 |
| GPITHAI (R3 Myelin Basic Protein-binding peptide) | 7 |
| SLDHLRL (R3 Myelin Basic Protein-binding peptide) | 6 |
| SKLAGFP (R3 Myelin Basic Protein-binding peptide) | 6 |
| QGTLFDT (R3 Myelin Basic Protein-binding peptide) | 7 |
| WTYHPTT (R3 Myelin Basic Protein-binding peptide) | 6 |
| IPIPYRT (R3 Myelin Basic Protein-binding peptide) | 6 |
| NTPKVLA (R3 Myelin Basic Protein-binding peptide) | 10 |
| LMLPQLE (R3 Myelin Basic Protein-binding peptide) | 6 |
| SSMRYNS (R3 Myelin Basic Protein-binding peptide) | 6 |
| NLTYLRF (R3 Myelin Basic Protein-binding peptide) | 6 |
| HFYGPGP (R3 Myelin Basic Protein-binding peptide) | 9 |
| TGPSSAV (R3 Myelin Basic Protein-binding peptide) | 6 |
| QQAHLQS (R3 Myelin Basic Protein-binding peptide) | 8 |
| NFAQHMQ (R3 Myelin Basic Protein-binding peptide) | 9 |
| SKPHASH (R3 Myelin Basic Protein-binding peptide) | 6 |
| FVLPNKN (R3 Myelin Basic Protein-binding peptide) | 8 |
| HAHWARL (R3 Myelin Basic Protein-binding peptide) | 6 |

| Substance | Count |
| --- | --- |
| IPYSQMP (R3 Myelin Basic Protein-binding peptide) | 6 |
| GRHTDVV (R3 Myelin Basic Protein-binding peptide) | 6 |
| HMAGVNQ (R3 Myelin Basic Protein-binding peptide) | 7 |
| DSQEKSV (R3 Myelin Basic Protein-binding peptide) | 6 |
| WPDLRIL (R3 Myelin Basic Protein-binding peptide) | 7 |
| NMYPRVT (R3 Myelin Basic Protein-binding peptide) | 7 |
| RVIPSTT (R3 Myelin Basic Protein-binding peptide) | 6 |
| HSGPLLP (R3 Myelin Basic Protein-binding peptide) | 6 |
| LITHPQL (R3 Myelin Basic Protein-binding peptide) | 6 |
| CEDSDKSVC (R3 Myelin Basic Protein-binding peptide) | 7 |
| IILPSAQ (R3 Myelin Basic Protein-binding peptide) | 8 |
| AKFTMWV (R3 Myelin Basic Protein-binding peptide) | 6 |
| TPVRLNT (R3 Myelin Basic Protein-binding peptide) | 6 |
| SISKIRT (R3 Myelin Basic Protein-binding peptide) | 7 |
| CNRVPFKQC (R3 Myelin Basic Protein-binding peptide) | 7 |
| SGNLKKA (R3 Myelin Basic Protein-binding peptide) | 7 |
| SLRSVGA (R3 Myelin Basic Protein-binding peptide) | 7 |
| SWFESHN (R3 Myelin Basic Protein-binding peptide) | 8 |
| SEGLTLL (R3 Myelin Basic Protein-binding peptide) | 6 |
| HPWSHPN (R3 Myelin Basic Protein-binding peptide) | 6 |
